Experimental data published in US20060253917A1 (published 2006).
Each block holds one binder with its values, some of them ahead of it.

B11: OsSGT1 aa 200-368 (other)
chain: QMLSVSIEVPGEEPYHFQPRLFSKIIPEKSRYQVLSTKVEIRLAKAEQITWTSLDYDKKPKAVPQKIIPPAESAQRPSYPSSKSKKDWDKLEAEVKKEEKEEKLEGDAALNKFFRDIYSDADEDMRRAMMKSFVESNGTVLSTNWKDVGSKKVEGSPPDGMELKKWEY
notes: bait, Gal4 DBD fusion; also called PN20285

Key:
Os006819-2510 aa 1-150 = molecular target: T1, Os006819-2510 aa 1-150 (Oryza sativa); experiment: Y2H; input trait library
T1 construct: bait, Gal4 DBD fusion; also called PN20462; Hypothetical Protein 006819-2510, Similar to Senescence-Related Protein 5 from Hemerocallis Hybrid Cultivar
T1 chain: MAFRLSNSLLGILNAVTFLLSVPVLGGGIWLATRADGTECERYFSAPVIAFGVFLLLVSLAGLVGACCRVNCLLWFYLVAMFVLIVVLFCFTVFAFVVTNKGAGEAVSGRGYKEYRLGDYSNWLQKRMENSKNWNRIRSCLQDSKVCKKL
Outline: (§1)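 Protein-protein interactions were detected with an automated, high-throughput yeast two-hybrid assay provided by Myriad Genetics Inc. (Salt Lake City, Utah). A bait clone encoding a defined amino-acid fragment of a rice protein was screened against a rice prey library, either the input trait or the output trait library. Prey clones were retrieved, and their encoding sequences were compared by BLAST against databases to identify the interacting proteins.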

Os008938-3209 aa 53-259 = molecular target: T2, Os008938-3209 aa 53-259 (Oryza sativa, UniProt Q06967 53-259); experiment: Y2H; input trait library
T2 construct: prey, AD fusion; also called PN20215; O. sativa Putative 14-3-3 Protein
T2 sequence: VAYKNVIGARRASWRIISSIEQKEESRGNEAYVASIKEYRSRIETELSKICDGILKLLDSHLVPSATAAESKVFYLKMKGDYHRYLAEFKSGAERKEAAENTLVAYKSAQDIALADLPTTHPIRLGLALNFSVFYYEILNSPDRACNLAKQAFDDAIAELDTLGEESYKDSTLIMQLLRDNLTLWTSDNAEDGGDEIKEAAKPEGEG
Outline: as §1

[1] = molecular target: T3, OsERP (PN20696) aa 23-120 (Oryza sativa, UniProt Q0JBH9 23-120); experiment: Y2H; output trait library
T3 construct: bait, Gal4 DBD fusion; also called Elicitor responsive protein
T3 sequence: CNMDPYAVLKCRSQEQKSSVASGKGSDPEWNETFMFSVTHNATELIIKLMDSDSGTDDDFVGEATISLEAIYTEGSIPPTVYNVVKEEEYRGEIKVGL
Outline: (§2)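 Rice protein fragments, each defined by an amino-acid range, served as bait against rice prey clone libraries in an automated, high-throughput yeast two-hybrid screen supplied by Myriad Genetics Inc. Prey clones that interacted were retrieved from the output trait library. The sequences encoding the retrieved fragments were compared against databases by BLAST analysis to identify the full-length genes. Each value records whether an interaction was detected.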

OsSGT1 aa 200-368 = molecular target: B11; experiment: Y2H; input trait library
Outline: as §1

OsSSS aa 68-270 = molecular target: T4, OsSSS aa 68-270 (Oryza sativa, UniProt A2Y9M4 68-270); experiment: Y2H; input trait library
T4 construct: prey, AD fusion; also called PN19701; Soluble Starch Synthase
T4 sequence: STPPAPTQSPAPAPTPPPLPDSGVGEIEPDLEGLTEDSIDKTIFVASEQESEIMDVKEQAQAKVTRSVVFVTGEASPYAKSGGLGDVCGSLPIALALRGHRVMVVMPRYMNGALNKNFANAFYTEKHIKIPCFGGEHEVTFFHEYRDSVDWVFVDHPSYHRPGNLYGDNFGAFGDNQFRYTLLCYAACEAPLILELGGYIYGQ
Outline: as §1

OsSSS aa 97-263 = molecular target: T5, OsSSS aa 97-263 (Oryza sativa, UniProt A2Y9M4 97-263); experiment: Y2H; output trait library
T5 construct: prey, AD fusion; also called PN19701
T5 sequence: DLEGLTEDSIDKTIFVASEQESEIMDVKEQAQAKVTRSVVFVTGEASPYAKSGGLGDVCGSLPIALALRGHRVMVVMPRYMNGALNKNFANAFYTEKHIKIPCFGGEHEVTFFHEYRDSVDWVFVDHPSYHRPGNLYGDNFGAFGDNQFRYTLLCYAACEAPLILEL
Outline: as §1

OsCATA aa 332-433 = molecular target: T6, OsCATA aa 332-433 (Oryza sativa, UniProt P0C549 332-433); experiment: Y2H; input trait library
T6 construct: prey, AD fusion; also called PN20899; O. sativa Catalase A Isozyme
T6 sequence: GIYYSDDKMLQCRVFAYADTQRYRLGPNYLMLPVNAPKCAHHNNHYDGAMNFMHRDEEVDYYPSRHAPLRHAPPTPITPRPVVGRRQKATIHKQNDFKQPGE
Outline: as §1

OsPN22154 aa 390-562 = molecular target: T7, OsPN22154 aa 390-562 (Oryza sativa, UniProt Q6Z6L4 390-562); experiment: Y2H; input trait library
T7 construct: prey, AD fusion; also called Novel Protein PN22154, Similar to A. thaliana Glutamyl Aminopeptidase
T7 sequence: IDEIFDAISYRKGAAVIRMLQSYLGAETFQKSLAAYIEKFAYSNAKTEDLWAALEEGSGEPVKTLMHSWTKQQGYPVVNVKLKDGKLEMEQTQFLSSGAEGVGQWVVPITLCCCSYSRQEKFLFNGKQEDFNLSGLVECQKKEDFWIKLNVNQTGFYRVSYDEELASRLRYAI
Outline: as §1

OsCS aa 411-489 = molecular target: T8, OsCS aa 411-489 (Oryza sativa, UniProt A2Y0X2 411-489); experiment: Y2H; input trait library
T8 construct: prey, AD fusion; also called PN19707; O. sativa Cellulose Synthase Catalytic Subunit, RSW1-Like
T8 sequence: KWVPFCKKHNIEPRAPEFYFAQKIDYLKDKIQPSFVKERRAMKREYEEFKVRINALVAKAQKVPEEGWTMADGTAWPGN
Outline: as §1

OsCS aa 316-583 = molecular target: T9, OsCS aa 316-583 (Oryza sativa, UniProt A2Y0X2 316-583); experiment: Y2H; input trait library
T9 construct: bait, Gal4 DBD fusion; also called PN19707
T9 sequence: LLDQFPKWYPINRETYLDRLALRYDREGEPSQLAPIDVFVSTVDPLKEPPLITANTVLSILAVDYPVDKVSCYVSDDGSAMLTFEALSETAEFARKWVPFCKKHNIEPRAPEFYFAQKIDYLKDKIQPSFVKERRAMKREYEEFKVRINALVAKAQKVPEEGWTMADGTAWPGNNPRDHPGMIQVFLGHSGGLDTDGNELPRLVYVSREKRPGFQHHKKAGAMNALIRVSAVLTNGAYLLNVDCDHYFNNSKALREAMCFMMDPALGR
Outline: as §1

PN20674 aa 71-298 = molecular target: T10, PN20674 aa 71-298 (Oryza sativa, UniProt Q6AVA8 71-298); experiment: Y2H; input trait library
T10 construct: prey, AD fusion; also called Pyruvate orthophosphate dikinase-like
T10 sequence: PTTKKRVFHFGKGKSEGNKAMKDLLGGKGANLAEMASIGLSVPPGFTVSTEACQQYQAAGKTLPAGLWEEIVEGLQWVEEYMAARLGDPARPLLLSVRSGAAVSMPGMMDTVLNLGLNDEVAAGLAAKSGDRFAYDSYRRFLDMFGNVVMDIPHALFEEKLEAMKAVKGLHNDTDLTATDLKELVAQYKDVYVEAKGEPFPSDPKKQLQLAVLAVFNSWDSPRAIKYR
Outline: as §1

PN20674 aa 64-263 = molecular target: T11, PN20674 aa 64-263 (Oryza sativa, UniProt Q6AVA8 64-263); experiment: Y2H; input trait library
T11 construct: prey, AD fusion; also called Pyruvate orthophosphate dikinase-like
T11 sequence: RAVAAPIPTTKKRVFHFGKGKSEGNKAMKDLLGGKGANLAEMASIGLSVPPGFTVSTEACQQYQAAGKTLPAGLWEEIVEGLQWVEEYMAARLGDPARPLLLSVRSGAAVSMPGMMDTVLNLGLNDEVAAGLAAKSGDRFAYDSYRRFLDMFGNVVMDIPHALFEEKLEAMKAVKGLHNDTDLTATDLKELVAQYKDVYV
Outline: as §1

OsRACD aa 1-198 = molecular target: T12, OsRACD aa 1-198 (Oryza sativa, UniProt Q6EP31 1-197); experiment: Y2H; input trait library
T12 construct: bait, Gal4 DBD fusion; also called PN19695
Outline: as §1

Os003118-3674 aa 75-149 = molecular target: T13, Os003118-3674 aa 75-149 (Oryza sativa, UniProt Q84VG0 75-148); experiment: Y2H; output trait library
T13 construct: bait, Gal4 DBD fusion; also called PN20551
T13 sequence: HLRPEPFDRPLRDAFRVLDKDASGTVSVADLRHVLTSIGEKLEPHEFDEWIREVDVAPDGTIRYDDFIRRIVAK
Outline: as §1

PN24061 aa 34-236 = molecular target: T14, PN24061 aa 34-236 (Oryza sativa, UniProt A2XLV9 34-236); experiment: Y2H; output trait library
T14 construct: prey, AD fusion; also called Auxin induced protein-like
T14 sequence: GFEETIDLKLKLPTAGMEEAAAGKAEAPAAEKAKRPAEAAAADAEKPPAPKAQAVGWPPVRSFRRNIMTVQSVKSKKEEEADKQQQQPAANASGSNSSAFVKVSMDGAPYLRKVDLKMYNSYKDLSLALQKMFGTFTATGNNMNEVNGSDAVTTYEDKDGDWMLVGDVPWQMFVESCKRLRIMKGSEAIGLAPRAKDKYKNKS
Outline: as §2

T12 sequence (Q6EP31 whole entry, the tested form may be a part): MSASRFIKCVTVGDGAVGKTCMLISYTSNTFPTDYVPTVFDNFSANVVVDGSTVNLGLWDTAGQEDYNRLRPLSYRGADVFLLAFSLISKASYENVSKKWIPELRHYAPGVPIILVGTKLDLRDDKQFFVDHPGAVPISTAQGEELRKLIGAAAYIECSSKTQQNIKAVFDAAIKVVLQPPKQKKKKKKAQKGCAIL

binding result [1]: binds
B3: PN31085 aa 378-553 (other)
chain: NGTISDSLGNLSELSDINLIGNNLTGHVPDSLTSLRLLQKLDLSGNDLTGPLPTFSPSVKVNVTGNLNFNGTAPGSAPSKDTPGSSSSRAPTLPGQGVLPENKKKRSAVVLATTIPVAVSVVALASVCAVLIFRKKRGSVPPNAASVVVHPRENSDPDNLVKIVMVNNDGNSSSTQ
notes: prey, AD fusion; also called Receptor-like protein kinase-like

binding result (OsSGT1 aa 200-368): binds
B4: PN20696 (OsERP) aa 54-144 (other)
chain: ETFMFSVTHNATELIIKLMDSDSGTDDDFVGEATISLEAIYTEGSIPPTVYNVVKEEEYRGEIKVGLTFTPEDDRDRGLSEEDIGGWKQSS
notes: prey, AD fusion; also called Elicitor responsive protein

binding result (OsCATA aa 332-433): binds
binding result (OsPN22154 aa 390-562): binds
binding result (OsCS aa 411-489): binds
B6: OsCHIB1 aa 10-200 (enzyme)
chain: YIGAQFTGVRFSDVPVNPGLSFHFILAFAIDYFMATQSSKPAPANGVFAPYWDTANLSPAAVAAAKAAHPNLSVILALGGDTVQNTGVNATFAPTSSVDAWVRNAADSVSGLIDAYGLDGVDVDYEHFAAGVDTFVECIGRLLTELKARHPNIATSIAPFEHPVVQRYYQPLWRRYAGVIDYVNFQFYGYG
notes: bait, Gal4 DBD fusion; also called PN19651; O. sativa Chitinase, Class III

binding result (OsCS aa 316-583): binds
B7: OsCS aa 316-582 (other)
chain: LLDQFPKWYPINRETYLDRLALRYDREGEPSQLAPIDVFVSTVDPLKEPPLITANTVLSILAVDYPVDKVSCYVSDDGSAMLTFEALSETAEFARKWVPFCKKHNIEPRAPEFYFAQKIDYLKDKIQPSFVKERRAMKREYEEFKVRINALVAKAQKVPEEGWTMADGTAWPGNNPRDHPGMIQVFLGHSGGLDTDGNELPRLVYVSREKRPGFQHHKKAGAMNALIRVSAVLTNGAYLLNVDCDHYFNNSKALREAMCFMMDPALG
notes: prey, AD fusion; also called PN19707

binding result (OsRACD aa 1-198): binds
B9: OsPN22824 aa 301-500 (other)
chain: DGEEVSCGIKAALAEKELEEEETKKMIEEESIDATAIDSGEKENPEVAELKAKLMAKDMEVAILTADNAELKKQVGEAAEAAKKAEEEAAAKASLVEQDLKERAAREARMGEQLRASEAARETLEAEMRRLRVQTEQWRKAAEAAPPVIGGDAHFVGHNGNGWGSPATMPDDCDDEGFGGKRKGAGIRMLGDLWKKKGSK
notes: prey, AD fusion

binding result (Os003118-3674 aa 75-149): binds
B10: OsPN23878 aa 824-935 (other)
chain: SLARKHRAAIILQRNLKCWLARRYFVNIRKASVVIQSGIRGCLVRRCAGNVDLLNVLREFESKKEAEGDQILIKASFLAELQRRILKAEATVREKDEENEMLQQRLQQYENR
notes: prey, AD fusion

Continued, binder first:

B1: OsPN29037 aa 73-165 (other)
chain: VVFDKDGVLEQIGEGKGYVDMSTVDAATSCKISEAIKQKGGAFVEAPVSGSKKPAEDGQLVILAAGDKVLYDDMVPAFDVLGKKSFFLGEIGN
notes: prey, AD fusion; also called Novel Protein PN29037
binding result (Os006819-2510 aa 1-150): binds

B2: OsCAA90866 aa 100-250 (other)
chain: GEMTERVAQEDRIPVLKASQDHLKEFISICEALELISEDELEISRQKNLIPWQIEEHRRLHGSSAKRLQKQSSRIKERKERRRRHESSCLSAPIELGGDLLRMMEKEREGMVSYYLIGSIEGFDLLDMLKKEEEIVPAVKEGKRRMVMHLL
notes: bait, Gal4 DBD fusion; also called PN20311; O. sativa Chilling-Inducible Protein CAA90866
binding result (Os008938-3209 aa 53-259): binds

B5: OsCRTC aa 250-425 (other)
chain: PKEIPDPDAKKPEAGADEEDGEWTAPTIRNPEYKGPWKQKKIKNPNYQGKWKPPMIATPDFQDDPYIYAFDSLKSIGIELWQVKSGTLFDNILITDDAALAKTFAEETWAKHKDAEKAAFDEAEKKKEEEEAAKAGEDDDDLDDEDAEDEDKADEKADSDAEDGKDSDDEKHDEL
notes: bait, Gal4 DBD fusion; also called PN20544
binding result (OsSSS aa 68-270): binds
binding result (OsSSS aa 97-263): binds

B8: OsERP (PN20696) aa 50-145 (other)
chain: PEWNETFMFSVTHNATELIIKLMDSDSGTDDDFVGEATISLEAIYTEGSIPPTVYNVVKEEEYRGEIKVGLTFTPEDDRDRGLSEEDIGGWKQSS
notes: bait, Gal4 DBD fusion; also called Elicitor responsive protein
binding result (PN20674 aa 71-298): binds
binding result (PN20674 aa 64-263): binds

Binder: B11
binding result (PN24061 aa 34-236): binds
